We go through 5 substances from patent US20220356230A1.

The target of test [1] is SARS-CoV-2 Spike Protein (Accession number MN908947.3, amino acids 16-1211) on pseudotyped VSV VLPs (SARS-CoV-2) (UniProt P0DTC2).
In test [2] the target is VLPs expressing VSV only (negative binding control) (vesicular stomatitis virus).
For test [3], the target named is Bt-MERS.hFc (mAb2664-L2) (MERS-CoV) (UniProt K9N5Q8). Nature of the test: Luminex bead assay, supernatant.
Test [4] deals with MERS.mFc (mAb2663-L1) (MERS-CoV) (UniProt K9N5Q8). Nature of the test: Luminex bead assay, supernatant.
Test [5] concerns the target MERS.hFc (mAb2664-L1) (MERS-CoV) (UniProt K9N5Q8). Description: Luminex bead assay, supernatant.
For test [6], the target named is SARS-CoV-2 spike protein (S-wt, Wuhan-Hu-1, NCBI Accession Number MN908947.3) on VSV-SARS-CoV-2-S pseudoparticles (SARS-CoV-2) (UniProt P0DTC2). Description: cell-based or functional assay.

“And” between values parts separate entries of the source, which are not always exact repeats. Equal entries are not always repeated.

For the substance IgG1 Isotype Control (antibody), the Ratio VSV/Spike:VSV in test [1] was 1 and 2.
Consider mAb10933 (antibody), for which the Antibody Binding Signal (RLU) in test [2] was 82 RLU and 29 RLU. Also, the Binding signal (MFI) was found to be 26 MFI in test [3], 22 MFI in test [4] and 21 MFI in test [5].
Substance mAb10934 (antibody) yielded a Binding signal (MFI) in test [4] of 77 MFI. Besides, the mAb neutralization potency (IC50 (M)) in test [6] is 5.44e-11 M.
mAb10936 (antibody): the Binding signal (MFI) in test [3] amounted to 32 MFI; in test [4], 32 MFI; in test [5] it was 26 MFI. The same substance yielded a mAb neutralization potency (IC50 (M)) in test [6] of 1.11e-10 M.
In test [6], mAb10987 (antibody) displayed a mAb neutralization potency (IC50 (M)) of 4.06e-11 M.
